Assay [1] has as its target IL-6R (Homo sapiens) (UniProt P08887). As to conditions: cited from earlier work.
The target of assay [2] is gp130 on Ba/F3-gp130 cells (UniProt P40189).
Assay [3] deals with gp130 on human cord blood Lin-CD34+ cells (human (endogenous in cord blood Lin-CD34+ cells)) (UniProt P40189).
gp130 on human cord blood Lin-CD34+ cells (human (endogenous in cord blood Lin-CD34+ cells)), sequence (P40189 23-918): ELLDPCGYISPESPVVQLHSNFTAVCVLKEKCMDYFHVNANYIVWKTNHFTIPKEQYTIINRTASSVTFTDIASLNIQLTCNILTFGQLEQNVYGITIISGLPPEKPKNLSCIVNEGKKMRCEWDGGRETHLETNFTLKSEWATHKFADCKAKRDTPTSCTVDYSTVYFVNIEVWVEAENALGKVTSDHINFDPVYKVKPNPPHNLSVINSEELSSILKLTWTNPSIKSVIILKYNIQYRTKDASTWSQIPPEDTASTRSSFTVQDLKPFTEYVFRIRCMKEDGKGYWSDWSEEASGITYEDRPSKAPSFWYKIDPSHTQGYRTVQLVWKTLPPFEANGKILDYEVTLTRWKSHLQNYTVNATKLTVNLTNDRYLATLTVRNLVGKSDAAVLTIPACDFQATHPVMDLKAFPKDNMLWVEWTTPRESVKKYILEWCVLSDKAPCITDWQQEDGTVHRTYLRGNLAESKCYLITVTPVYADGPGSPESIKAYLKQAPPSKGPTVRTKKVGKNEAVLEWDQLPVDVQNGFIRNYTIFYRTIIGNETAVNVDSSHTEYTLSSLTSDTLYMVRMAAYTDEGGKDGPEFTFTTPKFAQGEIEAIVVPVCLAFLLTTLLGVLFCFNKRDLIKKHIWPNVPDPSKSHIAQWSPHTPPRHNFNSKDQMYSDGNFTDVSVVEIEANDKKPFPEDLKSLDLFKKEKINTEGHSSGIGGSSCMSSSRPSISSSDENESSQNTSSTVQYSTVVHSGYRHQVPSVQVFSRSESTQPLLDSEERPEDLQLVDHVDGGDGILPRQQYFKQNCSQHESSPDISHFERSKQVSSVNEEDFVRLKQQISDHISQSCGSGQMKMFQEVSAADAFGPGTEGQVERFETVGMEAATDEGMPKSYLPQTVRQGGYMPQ

gp130 on Ba/F3-gp130 cells, sequence (P40189 23-918): as above
IL-6R (Homo sapiens), sequence (P08887 20-355): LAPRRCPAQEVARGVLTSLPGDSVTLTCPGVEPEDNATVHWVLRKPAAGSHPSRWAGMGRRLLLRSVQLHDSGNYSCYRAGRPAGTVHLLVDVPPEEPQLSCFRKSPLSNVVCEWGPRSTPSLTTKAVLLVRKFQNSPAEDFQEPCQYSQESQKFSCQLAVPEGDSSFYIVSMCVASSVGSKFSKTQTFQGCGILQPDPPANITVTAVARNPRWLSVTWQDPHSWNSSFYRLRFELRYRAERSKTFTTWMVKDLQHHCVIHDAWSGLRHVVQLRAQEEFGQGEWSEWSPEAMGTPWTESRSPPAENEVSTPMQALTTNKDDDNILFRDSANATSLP
IL-6, sequence (P05231 30-212): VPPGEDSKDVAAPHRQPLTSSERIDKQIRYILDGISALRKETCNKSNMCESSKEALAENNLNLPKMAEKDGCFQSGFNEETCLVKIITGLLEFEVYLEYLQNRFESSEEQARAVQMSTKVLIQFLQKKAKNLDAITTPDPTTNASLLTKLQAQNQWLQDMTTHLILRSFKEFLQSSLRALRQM

As for IL-6 (from UniProt P05231), the Kd in assay [1] is 1 nM.
Turning to “Hyper IL-11 (H11) (from UniProt Q14626 23-365; P20809 19-199)”, the proliferation of Ba/F3-gp130 cells (MTT, 72 h): dose of H11 for half-maximum proliferation in assay [2] lay within 800 to 900 pM. The CD235a+ (erythroid) cells in Lin-CD34+ liquid culture with 50 ng/ml H11, day 14, flow cytometry (27% with Hyper-IL-6, 20% in control culture) in assay [3] is 39%.

The record behind these values is publication PMC3382428.
